B1: recombinant full-length human advillin (GST tag cleaved) (natural protein, UniProt O75366 1-819, looked up)
chain: MPLTSAFRAVDNDPGIIVWRIEKMELALVPVSAHGNFYEGDCYVILSTRRVASLLSQDIHFWIGKDSSQDEQSCAAIYTTQLDDYLGGSPVQHREVQYHESDTFRGYFKQGIIYKQGGVASGMKHVETNTYDVKRLLHVKGKRNIRATEVEMSWDSFNRGDVFLLDLGKVIIQWNGPESNSGERLKAMLLAKDIRDRERGGRAKIGVIEGDKEAASPELMKVLQDTLGRRSIIKPTVPDEIIDQKQKSTIMLYHISDSAGQLAVTEVATRPLVQDLLNHDDCYILDQSGTKIYVWKGKGATKAEKQAAMSKALGFIKMKSYPSSTNVETVNDGAESAMFKQLFQKWSVKDQTMGLGKTFSIGKIAKVFQDKFDVTLLHTKPEVAAQERMVDDGNGKVEVWRIENLELVPVEYQWYGFFYGGDCYLVLYTYEVNGKPHHILYIWQGRHASQDELAASAYQAVEVDRQFDGAAVQVRVRMGTEPRHFMAIFKGKLVIFEGGTSRKGNAEPDPPVRLFQIHGNDKSNTKAVEVPAFASSLNSNDVFLLRTQAEHYLWYGKGSSGDERAMAKELASLLCDGSENTVAEGQEPAEFWDLLGGKTPYANDKRLQQEILDVQSRLFECSNKTGQFVVTEITDFTQDDLNPTDVMLLDTWDQVFLWIGAEANATEKESALATAQQYLHTHPSGRDPDTPILIIKQGFEPPIFTGWFLAWDPNIWSAGKTYEQLKEELGDAAAIMRITADMKNATLSLNSNDSEPKYYPIAVLLKNQNQELPEDVNPAKKENYLSEQDFVSVFGITRGQFAALPGWKQLQMKKEKGLF
B2: recombinant full-length human villin (GST tag cleaved) (natural protein, UniProt P09327 1-827, looked up)
chain: MTKLSAQVKGSLNITTPGLQIWRIEAMQMVPVPSSTFGSFFDGDCYIILAIHKTASSLSYDIHYWIGQDSSLDEQGAAAIYTTQMDDFLKGRAVQHREVQGNESEAFRGYFKQGLVIRKGGVASGMKHVETNSYDVQRLLHVKGKRNVVAGEVEMSWKSFNRGDVFLLDLGKLIIQWNGPESTRMERLRGMTLAKEIRDQERGGRTYVGVVDGENELASPKLMEVMNHVLGKRRELKAAVPDTVVEPALKAALKLYHVSDSEGNLVVREVATRPLTQDLLSHEDCYILDQGGLKIYVWKGKKANEQEKKGAMSHALNFIKAKQYPPSTQVEVQNDGAESAVFQQLFQKWTASNRTSGLGKTHTVGSVAKVEQVKFDATSMHVKPQVAAQQKMVDDGSGEVQVWRIENLELVPVDSKWLGHFYGGDCYLLLYTYLIGEKQHYLLYVWQGSQASQDEITASAYQAVILDQKYNGEPVQIRVPMGKEPPHLMSIFKGRMVVYQGGTSRTNNLETGPSTRLFQVQGTGANNTKAFEVPARANFLNSNDVFVLKTQSCCYLWCGKGCSGDEREMAKMVADTISRTEKQVVVEGQEPANFWMALGGKAPYANTKRLQEENLVITPRLFECSNKTGRFLATEIPDFNQDDLEEDDVFLLDVWDQVFFWIGKHANEEEKKAAATTAQEYLKTHPSGRDPETPIIVVKQGHEPPTFTGWFLAWDPFKWSNTKSYEDLKAELGNSRDWSQITAEVTSPKVDVFNANSNLSSGPLPIFPLEQLVNKPVEELPEGVDPSRKEEHLSIEDFTQAFGMTPAAFSALPRWKQQNLKKEKGLF

Molecular target: the molecule itself
Experiment: cross-linking

Protein	binding result	stoichiometry N
B1	binds	–
B2	–	2
